Experimental data taken from publication PMC11143224, “Flavivirus Zika NS4A protein forms large oligomers in liposomes and in mild detergent” (Scientific Reports, 2024).

Columns and labels:
[1] = target: the molecule itself; test: AUC; sedimentation velocity, most diluted samples (detergent-to-protein ratio 640 and 320); 1 mM C14-betaine, 50 mM Tris-HCl pH 7.3, 100 mM NaCl, 2 mM TCEP, 33.4% D2O, 50,000 rpm, 25 °C, absorbance at 230 nm
[2] = target: the molecule itself; test: AUC; sedimentation equilibrium, multi-speed (15,000-33,000 rpm), 1 mM C14-betaine, 50 mM Tris-HCl pH 7.3, 100 mM NaCl, 2 mM TCEP, 33.4% D2O, absorbance at 280 nm; fitted in SEDPHAT; constant is of dimers to hexamer
[3] = target: the molecule itself; test: cross-linking; purified NS4A (12 uM) in POPC/POPS (4:1) liposomes, lipid-to-protein ratios 40, 100 and 250; DSS 0.03-1.0 mM, or DSG, BS3, DSS, EGS, DSP at 0.25 mM, 15 min; SDS-PAGE and anti-His-tag Western blot

B1: full-length Zika NS4A protein (strain MR-766) (natural protein)
chain: GAALGVMEALGTLPGHMTERFQEAIDNLAVLMRAETGSRPYKAAAAQLPETLETIMLLGLLGTVSLGIFFVLMRNKGIGKMGFGMVTLGASAWLMWLSEIEPARIACVLIVVFLLLVVLIPEPEKQR
notes: NS4A of Zika virus strain MR-766, the cut product of the polyprotein (mature NS4A without 2K), 127 residues (1-127); also called ZIKV NS4A; NS4A-FL; not shown: His-tag, N-terminal, kept
[1]
  stoichiometry N: 2
[2]
  stoichiometry N: 6
[3]
  stoichiometry N: ≥ 6
